Measurements: PMC3541276

Columns and labels:
[1] = target: rabbit muscle G-actin (rabbit) (UniProt P68135); assay: ITC; 20°C; TbCof (0.15 mM, syringe) injected into ADP-G-actin (0.015 mM, cell); ADP-G-buffer: 10 mM Tris, 0.2 mM CaCl2, 0.2 mM ADP, 2.0 mM BME, pH 7.4 (low ionic strength); one-site model
[2] = target: rabbit muscle G-actin (rabbit) (UniProt P68135); assay: ITC; 20°C; TbCof (0.28 mM, syringe) injected into ATP-G-actin (0.028 mM, cell); ATP-G-buffer: 10 mM Tris, 0.2 mM CaCl2, 0.2 mM ATP, 2.0 mM BME, pH 7.4 (low ionic strength); one-site model

“ADF/cofilin from Trypanosoma brucei (TbCof), His6 tag cleaved with TEV protease (natural protein)” was tested, and the Kd [1] was 80 nM, the dH [1] was -9.48 kcal/mol and the stoichiometry N [1] was 1. It also gave a Kd [2] of 360 nM, a dH [2] of -3.93 kcal/mol and a stoichiometry N [2] of 1.
